From paper doi:10.1101/2023.02.27.530324
Where “and” joins values, the source holds several entries; their conditions need not be identical. Equal entries are not always repeated.

Experiments:
[1] = target: Enhygromyxa salina luciferase LuxA (Enhygromyxa salina); experiment: SEC-MALS
[2] = target: Enhygromyxa salina luciferase LuxA (Enhygromyxa salina); experiment: SAXS

stoichiometry N [1]: 2 and 4 | percent of the protein as dimers [2]: 82% | percent of the protein as tetramers [2]: 18% | stoichiometry N [2]: 2 and 4
Substance: Enhygromyxa salina luciferase LuxA (enzyme)
